The text below walks through data of PMC11093223 (2024).

Holding throughout (assay): ITC
One experiment concerns the target T1, SLAMF7 (Homo sapiens (Human), UniProt Q9NQ25).
T1 chain: EDPANTVYSTVE

In a further experiment the target is T2, FAM174C (Homo sapiens (Human), UniProt Q9BVV8).
T2 chain: DSDEETVFES

In the next experiment the target is T3, CIMPR (Homo sapiens (Human), UniProt P11717).
T3 chain: EEETDENETEWLM

In the next experiment the target is T4, KIAA0319 (Homo sapiens (Human), UniProt Q5VV43).
T4 chain: ESEFDSDQDTIF

The next experiment addresses T5, NPDC1 (Homo sapiens (Human), UniProt Q9NQX5).
T5 chain: DEENEDGDFTVYEC

The target in a further experiment is T6, CPD (Homo sapiens (Human), UniProt O75976).
T6 chain: EEETLYSSKH

Usually Kd stands for the free concentration of one partner at which half of the binding sites on the other are occupied at equilibrium, for simple one-to-one binding.

B1: TBC1D23 (protein)
chain: DRKEVVNIQTWINKPDIKHHFPCKEVKESGHMFPSHLLVTATHMYCLREILSRKGLAYIQSRQALNSVVKITSKKKHPELITFKYGNSSASGIEILAIERYLIPNAGDATRAIKQQIMKVLDALES
With B1, the Kd with SLAMF7 was over 100 µM; with FAM174C, 15.7 µM; with CIMPR, over 100 µM; with KIAA0319 it was 35.2 µM; with NPDC1, 2.9 µM; with CPD, 10.6 µM.
